This assay concerns the target monkey BCMA-MMH (monkey BCMA with C-terminal myc-myc-hexahistidine tag) (monkey). Put plainly: SPR, Biacore, mAb captured by anti-hFc, 25 C.

Chain of monkey BCMA-MMH (monkey BCMA with C-terminal myc-myc-hexahistidine tag) (monkey) (chain, as listed by the source limits assumed): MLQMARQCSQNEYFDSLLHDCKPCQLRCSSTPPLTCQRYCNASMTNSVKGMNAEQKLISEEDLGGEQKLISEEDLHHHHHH

B1: mAb16747 (REGN4515) (antibody, V domains shown)
VH: QVQLVESGGGLVKPGGSLRLSCAASGFTFSDYYISWIRQAPGKGLEWVSYISSSGSSIKYADSVKGRFTISRDNAKNSLYLQMNSLRAEDTAVYYCAREGGNYGMDVWGQGTTVTVSS
VL: DIQMTQSPSSVSASVGDRVTITCRASQGINNWLVWYQQKPGKAPKLLIYAATSLQSGVPSRFSGSGSGTDFTLTISSLQPEDFATYYCQQANSFPPTFGQGTKLEIK
Regarding B1, the 90 nM mfBCMA.mmh Bind (RU) is 1.9 RU.

B2: mAb16732 (REGN4514) (antibody, V domains shown)
VH: EVQLVESGGGLVQPGRSLRLSCAASGFTFDDYAMHWVRQAPGKGLEWVSGISWNSGNMGYADSVKGRFTISRDNAKNSLFLQMHSLRAEDTAFYYCAKVRLTAFDFWGQGTLVTVSS
VL: DIQMTQSPSSLSASVGDRVTITCRTSQSIGNYLNWFQQKPGKAPKLLIYTASSLQNGVPSRFTGSGSGTDFTLTISSLQPEDFVIYYCQQSFSTPYTFGQGTKLEIK
The molecule B2 registered a 90 nM mfBCMA.mmh Bind (RU) of 1.1 RU.

The values are drawn from patent US20220306758A1.
